# Where “and” joins values, the source holds several entries; their conditions need not be identical. Equal values may be shown once. No end group written: not given here. *: point of attachment. AMC = Cc1cc(=O)oc2cc(N*)ccc12
# Target: LpApaH (3) (Legionella pneumophila, UniProt A0A2S6EWV0)
# Format: biochemical
row,Substance,[AMC]
1,"QPKKdec (QPKK-{AMC}; not fully specified (residue 4); printed as QPKKdec; also: decanoyl-lysine (which Lys not given here); UniProt P04637 317-320, looked up, fragment)",154.30 nM and 187.50 nM
2,"QPKKmyr (QPKK-{AMC}; not fully specified (residue 4); printed as QPKKmyr; also: myristoyl-lysine (which Lys not given here); UniProt P04637 317-320, looked up, fragment)",400.39 nM and 496.09 nM
3,"QPKKoct (QPKK-{AMC}; not fully specified (residue 4); printed as QPKKoct; also: octanoyl-lysine (which Lys not given here); UniProt P04637 317-320, looked up, fragment)",53.71 nM and 69.34 nM
